Laboratory results published in PMC8956632.

Molecular target: 5-HT1AR-Rluc (UniProt P08908)
Assay: BRET
Details: HEK293 cells, basal (no agonist); parent: est. 0.27; read off a plot

OX1R-EGFP, sequence (O43613 whole entry, stated change not applied): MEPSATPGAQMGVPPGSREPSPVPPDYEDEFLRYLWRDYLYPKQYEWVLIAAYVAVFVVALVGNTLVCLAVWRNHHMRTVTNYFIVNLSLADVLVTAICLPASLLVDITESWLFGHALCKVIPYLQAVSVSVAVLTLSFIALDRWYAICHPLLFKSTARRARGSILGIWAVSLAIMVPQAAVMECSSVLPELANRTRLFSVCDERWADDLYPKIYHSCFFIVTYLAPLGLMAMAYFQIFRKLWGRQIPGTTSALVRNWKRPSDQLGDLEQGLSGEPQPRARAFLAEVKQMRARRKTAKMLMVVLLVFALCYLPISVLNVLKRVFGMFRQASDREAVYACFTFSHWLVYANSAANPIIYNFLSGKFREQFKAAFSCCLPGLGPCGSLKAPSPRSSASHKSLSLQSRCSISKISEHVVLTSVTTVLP
5-HT1AR-Rluc, sequence (P08908 whole entry): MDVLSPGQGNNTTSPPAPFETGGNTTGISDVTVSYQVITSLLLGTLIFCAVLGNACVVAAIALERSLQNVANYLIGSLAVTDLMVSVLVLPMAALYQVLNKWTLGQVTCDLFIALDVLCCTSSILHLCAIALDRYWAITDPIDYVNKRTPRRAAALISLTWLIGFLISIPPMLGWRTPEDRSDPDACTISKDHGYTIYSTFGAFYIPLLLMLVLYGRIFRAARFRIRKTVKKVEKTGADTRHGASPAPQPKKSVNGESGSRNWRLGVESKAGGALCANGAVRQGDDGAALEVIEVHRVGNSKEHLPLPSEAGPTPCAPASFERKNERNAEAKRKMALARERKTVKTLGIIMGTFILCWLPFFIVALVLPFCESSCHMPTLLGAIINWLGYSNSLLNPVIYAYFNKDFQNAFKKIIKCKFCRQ

## OX1R-EGFP (from UniProt O43613) L168A
  response: 0.27
